Six variants from article PMC11328874 (2024) can be followed below.

The labels stand for the following.
B1: HA-tagged B55α (HA-B55α), wild type [human] / FLAG-Eya3 (human), wild type [human] (parent complex)
chain 1: MAGAGGGNDIQWCFSQVKGAVDDDVAEADIISTVEFNHSGELLATGDKGGRVVIFQQEQENKIQSHSRGEYNVYSTFQSHEPEFDYLKSLEIEEKINKIRWLPQKNAAQFLLSTNDKTIKLWKISERDKRPEGYNLKEEDGRYRDPTTVTTLRVPVFRPMDLMVEASPRRIFANAHTYHINSISINSDYETYLSADDLRINLWHLEITDRSFNIVDIKPANMEELTEVITAAEFHPNSCNTFVYSSSKGTIRLCDMRASALCDRHSKLFEEPEDPSNRSFFSEIISSISDVKFSHSGRYMMTRDYLSVKIWDLNMENRPVETYQVHEYLRSKLCSLYENDCIFDKFECCWNGSDSVVMTGSYNNFFRMFDRNTKRDITLEASRENNKPRTVLKPRKVCASGKRKKDEISVDSLDFNKKILHTAWHPKENIIAVATTNNLYIFQDKVN
chain 2: MEEEQDLPEQPVKKAKMQESGEQTISQVSNPDVSDQKPETSSLASNLPMSEEIMTCTDYIPRSSNDYTSQMYSAKPYAHILSVPVSETAYPGQTQYQTLQQTQPYAVYPQATQTYGLPPFGALWPGMKPESGLIQTPSPSQHSVLTCTTGLTTSQPSPAHYSYPIQASSTNASLISTSSTIANIPAAAVASISNQDYPTYTILGQNQYQACYPSSSFGVTGQTNSDAESTTLAATTYQSEKPSVMAPAPAAQRLSSGDPSTSPSLSQTTPSKDTDDQSRKNMTSKNRGKRKADATSSQDSELERVFLWDLDETIIIFHSLLTGSYAQKYGKDPTVVIGSGLTMEEMIFEVADTHLFFNDLEECDQVHVEDVASDDNGQDLSNYSFSTDGFSGSGGSGSHGSSVGVQGGVDWMRKLAFRYRKVREIYDKHKSNVGGLLSPQRKEALQRLRAEIEVLTDSWLGTALKSLLLIQSRKNCVNVLITTTQLVPALAKVLLYGLGEIFPIENIYSATKIGKESCFERIVSRFGKKVTYVVIGDGRDEEIAAKQHNMPFWRITNHGDLVSLHQALELDFL

Variants of B1 are the subject of the experiment. The experiment is described as follows: FLAG co-IP followed by Western blot, band quantification; cotransfected HEK cells; three biological replicates; parent: 1; read off a plot.
Turning to chain 1 MAGAGGGNDIQWCFSQVKGAVDDDVAEADIISTVEFNHSGELLATGDKGGRVVIFQQEQENKIQSHSRGEYNVYSTFQSHEPEFDYLKSLEIEEKINKIRWLPQKNAAQFLLSTNDKTIKLWKISERDKRPEGYNLKEEDGRYRDPTTVTTLRVPVFRPMDLMVEASPRRIFANAHTYHINSISINSDYETYLSADKLRINLWHLEITDRSFNIVDIKPANMEELTEVITAAEFHPNSCNTFVYSSSKGTIRLCDMRASALCDRHSKLFEEPEDPSNRSFFSEIISSISDVKFSHSGRYMMTRDYLSVKIWDLNMENRPVETYQVHEYLRSKLCSLYENDCIFDKFECCWNGSDSVVMTGSYNNFFRMFDRNTKRDITLEASRENNKPRTVLKPRKVCASGKRKKDEISVDSLDFNKKILHTAWHPKENIIAVATTNNLYIFQDKVN [chain 1 D197K], the ratio to parent is roughly 0.58.

As to chain 1 MAGAGGGNDIQWCFSQVKGAVDDDVAEADIISTVEFNHSGELLATGDKGGRVVIFQQEQENKIQSHSRGEYNVYSTFQSHEPEFDYLKSLEIEEKINKIRWLPQKNAAQFLLSTNDKTIKLWKISERDKRPEGYNLKEEDGRYRDPTTVTTLRVPVFRPMDLMVEASPRRIFANAHTAAINSISINSDYETYLSADDLRINLWHLEITDRSFNIVDIKPANMEELTEVITAAEFHPNSCNTFVYSSSKGTIRLCDMRASALCDRHSKLFEEPEDPSNRSFFSEIISSISDVKFSHSGRYMMTRDYLSVKIWDLNMENRPVETYQVHEYLRSKLCSLYENDCIFDKFECCWNGSDSVVMTGSYNNFFRMFDRNTKRDITLEASRENNKPRTVLKPRKVCASGKRKKDEISVDSLDFNKKILHTAWHPKENIIAVATTNNLYIFQDKVN [chain 1 Y178A, chain 1 H179A], the ratio to parent was roughly 0.28.

Turning to chain 1 MAGAGGGNDIQWCFSQVKGAVDDDVAEADIISTVEFNHSGELLATGDKGGRVVIFQQEQENKIQSHSRGEYNVYSTFQSHEPEFDYLKSLEIAAAINKIRWLPQKNAAQFLLSTNDKTIKLWKISERDKRPEGYNLKEEDGRYRDPTTVTTLRVPVFRPMDLMVEASPRRIFANAHTYHINSISINSDYETYLSADDLRINLWHLEITDRSFNIVDIKPANMEELTEVITAAEFHPNSCNTFVYSSSKGTIRLCDMRASALCDRHSKLFEEPEDPSNRSFFSEIISSISDVKFSHSGRYMMTRDYLSVKIWDLNMENRPVETYQVHEYLRSKLCSLYENDCIFDKFECCWNGSDSVVMTGSYNNFFRMFDRNTKRDITLEASRENNKPRTVLKPRKVCASGKRKKDEISVDSLDFNKKILHTAWHPKENIIAVATTNNLYIFQDKVN [chain 1 E93A, chain 1 E94A, chain 1 K95A], the ratio to parent is roughly 0.4.

With chain 1 MAGAGGGNDIQWCFSQVKGAVDDDVARADIISTVEFNHSGELLATGDKGGRVVIFQQEQENKIQSHSRGEYNVYSTFQSHEPEFDYLKSLEIEEKINKIRWLPQKNAAQFLLSTNDKTIKLWKISERDKRPEGYNLKEEDGRYRDPTTVTTLRVPVFRPMDLMVEASPRRIFANAHTYHINSISINSDYETYLSADDLRINLWHLEITDRSFNIVDIKPANMEELTEVITAAEFHPNSCNTFVYSSSKGTIRLCDMRASALCDRHSKLFEEPEDPSNRSFFSEIISSISDVKFSHSGRYMMTRDYLSVKIWDLNMENRPVETYQVHEYLRSKLCSLYENDCIFDKFECCWNGSDSVVMTGSYNNFFRMFDRNTKRDITLEASRENNKPRTVLKPRKVCASGKRKKDEISVDSLDFNKKILHTAWHPKENIIAVATTNNLYIFQDKVN [chain 1 E27R], the ratio to parent was roughly 1.2.

Take chain 1 MAGAGGGNDIQWCFSQVKGAVDDDVAEADIISTVEFNHSGELLATGDKGGRVVIFQQEQENKIQSHSRGEYNVYSTFQSHEPEFDYLKSLEIEEKINKIRWLPQKNAAQFLLSTNDKTIKLWKISERDKRPEGYNLKEEDGRYRDPTTVTTLRVPVFRPMDLMVEASPRRIFANAHTYHINSISINSDYETYLSADDLRINLWHLEITDRSFNIVDIKPANMEELTEVITAAEFHPNSCNTFVYSSSKGTIRLCDMRASALCDRHSKLFEEPEDPSNRSFFSEIISSISDVKFSHSGRYMMTRDYLSVKIWDLNMENRPVETYQVHEYLRSKLCSLYENDCIFDEFECCWNGSDSVVMTGSYNNFFRMFDRNTKRDITLEASRENNKPRTVLKPRKVCASGKRKKDEISVDSLDFNKKILHTAWHPKENIIAVATTNNLYIFQDKVN [chain 1 K345E]: the ratio to parent was roughly 0.36.

Turning to chain 1 MAGAGGGNDIQWCFSQVKGAVDDDVAEADIISTVEFNHSGELLATGDEGGRVVIFQQEQENKIQSHSRGEYNVYSTFQSHEPEFDYLKSLEIEEKINKIRWLPQKNAAQFLLSTNDKTIKLWKISERDKRPEGYNLKEEDGRYRDPTTVTTLRVPVFRPMDLMVEASPRRIFANAHTYHINSISINSDYETYLSADDLRINLWHLEITDRSFNIVDIKPANMEELTEVITAAEFHPNSCNTFVYSSSKGTIRLCDMRASALCDRHSKLFEEPEDPSNRSFFSEIISSISDVKFSHSGRYMMTRDYLSVKIWDLNMENRPVETYQVHEYLRSKLCSLYENDCIFDKFECCWNGSDSVVMTGSYNNFFRMFDRNTKRDITLEASRENNKPRTVLKPRKVCASGKRKKDEISVDSLDFNKKILHTAWHPKENIIAVATTNNLYIFQDKVN [chain 1 K48E], the ratio to parent was roughly 1.1.
